Reference: US20180243244A1
Read-outs that look alike come from different tables or passages of the source. No end group written: not given here.

Legend:
p62-D3-GST, Q13501 [1] = target: p62-D3-GST, Q13501
p62-D3-GST, Q13501 [2] = target: p62-D3-GST, Q13501; remark: listed apart in the source
p62-D3-GST, Q13501 [3] = experiment: SPR (Biacore), legend of FIG. 6
[4] = target: p62 (Homo sapiens (Human)), Q13501; experiment: X-peptide pull down of in vitro transcribed and translated p62, Western blot

RIFSTIEGRTYK (not fully specified) [R11 peptide (biotin-labeled X-peptide with N-terminal Arg)] was tested, and the fold binding force against N-recognins containing a URB box (p62-D3-GST, Q13501 [1]) was 50 times, the Kd (p62-D3-GST, Q13501 [2]) was 44 nM and the koff (p62-D3-GST, Q13501 [2]) was 0.0005 s⁻¹. For the same binder, the kon (p62-D3-GST, Q13501 [2]) was 12300 M⁻¹ s⁻¹, the Kd (p62-D3-GST, Q13501 [3]) was 40 nM and the efficiency of precipitating p62 [4] was over 40%.

Binder FIFSTIEGRTY (not fully specified) [F11 peptide (biotin-labeled X-peptide with N-terminal Phe)] has a Kd (p62-D3-GST, Q13501 [1]) of 3400 nM, a Kd (p62-D3-GST, Q13501 [2]) of 3440 nM and a koff (p62-D3-GST, Q13501 [2]) of 0.0019 s⁻¹. The kon (p62-D3-GST, Q13501 [2]) was 550 M⁻¹ s⁻¹ and the efficiency of precipitating p62 [4] was 5%.
